From patent publication US20260193293A1, “PEPTIDES CAPABLE OF INHIBITING PROTEIN-PROTEIN INTERACTIONS AT GABAB1A SUBUNIT AND USES THEREOF” (UNIVERSITY OF COPENHAGEN, priority 2022, published 2026) come the findings set out here.

The chains are these.
B1: …(N-Me-E)D (peptide)
peptide: Ac-PWAIVWGPTVSR[NMeE]D-NH2
SMILES: CC[C@H](C)[C@H](NC(=O)[C@H](C)NC(=O)[C@H](Cc1c[nH]c2ccccc12)NC(=O)[C@@H]1CCCN1C(C)=O)C(=O)N[C@H](C(=O)N[C@@H](Cc1c[nH]c2ccccc12)C(=O)NCC(=O)N1CCC[C@H]1C(=O)N[C@H](C(=O)N[C@H](C(=O)N[C@@H](CO)C(=O)N[C@@H](CCCNC(=N)N)C(=O)N(C)[C@@H](CCC(=O)O)C(=O)N[C@@H](CC(=O)O)C(N)=O)C(C)C)[C@@H](C)O)C(C)C
B2: PWAIVWGP(N-Me-T)VSRED (peptide)
peptide: Ac-PWAIVWGP[NMeT]VSRED-NH2
SMILES: CC[C@H](C)[C@H](NC(=O)[C@H](C)NC(=O)[C@H](Cc1c[nH]c2ccccc12)NC(=O)[C@@H]1CCCN1C(C)=O)C(=O)N[C@H](C(=O)N[C@@H](Cc1c[nH]c2ccccc12)C(=O)NCC(=O)N1CCC[C@H]1C(=O)N(C)[C@H](C(=O)N[C@H](C(=O)N[C@@H](CO)C(=O)N[C@@H](CCCNC(=N)N)C(=O)N[C@@H](CCC(=O)O)C(=O)N[C@@H](CC(=O)O)C(N)=O)C(C)C)[C@@H](C)O)C(C)C
B3: PWAI(N-Me-V)… (peptide)
peptide: Ac-PWAI[NMeV]WGPTVSRED-NH2
SMILES: CC[C@H](C)[C@H](NC(=O)[C@H](C)NC(=O)[C@H](Cc1c[nH]c2ccccc12)NC(=O)[C@@H]1CCCN1C(C)=O)C(=O)N(C)[C@H](C(=O)N[C@@H](Cc1c[nH]c2ccccc12)C(=O)NCC(=O)N1CCC[C@H]1C(=O)N[C@H](C(=O)N[C@H](C(=O)N[C@@H](CO)C(=O)N[C@@H](CCCNC(=N)N)C(=O)N[C@@H](CCC(=O)O)C(=O)N[C@@H](CC(=O)O)C(N)=O)C(C)C)[C@@H](C)O)C(C)C
B4: …(N-Me-D) (peptide)
peptide: Ac-PWAIVWGPTVSRE[NMeD]-NH2
SMILES: CC[C@H](C)[C@H](NC(=O)[C@H](C)NC(=O)[C@H](Cc1c[nH]c2ccccc12)NC(=O)[C@@H]1CCCN1C(C)=O)C(=O)N[C@H](C(=O)N[C@@H](Cc1c[nH]c2ccccc12)C(=O)NCC(=O)N1CCC[C@H]1C(=O)N[C@H](C(=O)N[C@H](C(=O)N[C@@H](CO)C(=O)N[C@@H](CCCNC(=N)N)C(=O)N[C@@H](CCC(=O)O)C(=O)N(C)[C@@H](CC(=O)O)C(N)=O)C(C)C)[C@@H](C)O)C(C)C
B5: PWA(N-Me-I)… (peptide)
peptide: Ac-PWA[NMeI]VWGPTVSRED-NH2
SMILES: CC[C@H](C)[C@@H](C(=O)N[C@H](C(=O)N[C@@H](Cc1c[nH]c2ccccc12)C(=O)NCC(=O)N1CCC[C@H]1C(=O)N[C@H](C(=O)N[C@H](C(=O)N[C@@H](CO)C(=O)N[C@@H](CCCNC(=N)N)C(=O)N[C@@H](CCC(=O)O)C(=O)N[C@@H](CC(=O)O)C(N)=O)C(C)C)[C@@H](C)O)C(C)C)N(C)C(=O)[C@H](C)NC(=O)[C@H](Cc1c[nH]c2ccccc12)NC(=O)[C@@H]1CCCN1C(C)=O
B6: PW(N-Me-A)… (peptide)
peptide: Ac-PW[NMeA]IVWGPTVSRED-NH2
SMILES: CC[C@H](C)[C@H](NC(=O)[C@H](C)N(C)C(=O)[C@H](Cc1c[nH]c2ccccc12)NC(=O)[C@@H]1CCCN1C(C)=O)C(=O)N[C@H](C(=O)N[C@@H](Cc1c[nH]c2ccccc12)C(=O)NCC(=O)N1CCC[C@H]1C(=O)N[C@H](C(=O)N[C@H](C(=O)N[C@@H](CO)C(=O)N[C@@H](CCCNC(=N)N)C(=O)N[C@@H](CCC(=O)O)C(=O)N[C@@H](CC(=O)O)C(N)=O)C(C)C)[C@@H](C)O)C(C)C
B7: …(N-Me-S)RED (peptide)
peptide: Ac-PWAIVWGPTV[NMeS]RED-NH2
SMILES: CC[C@H](C)[C@H](NC(=O)[C@H](C)NC(=O)[C@H](Cc1c[nH]c2ccccc12)NC(=O)[C@@H]1CCCN1C(C)=O)C(=O)N[C@H](C(=O)N[C@@H](Cc1c[nH]c2ccccc12)C(=O)NCC(=O)N1CCC[C@H]1C(=O)N[C@H](C(=O)N[C@H](C(=O)N(C)[C@@H](CO)C(=O)N[C@@H](CCCNC(=N)N)C(=O)N[C@@H](CCC(=O)O)C(=O)N[C@@H](CC(=O)O)C(N)=O)C(C)C)[C@@H](C)O)C(C)C
B8: …(N-Me-R)ED (peptide)
peptide: Ac-PWAIVWGPTVS[NMeR]ED-NH2
SMILES: CC[C@H](C)[C@H](NC(=O)[C@H](C)NC(=O)[C@H](Cc1c[nH]c2ccccc12)NC(=O)[C@@H]1CCCN1C(C)=O)C(=O)N[C@H](C(=O)N[C@@H](Cc1c[nH]c2ccccc12)C(=O)NCC(=O)N1CCC[C@H]1C(=O)N[C@H](C(=O)N[C@H](C(=O)N[C@@H](CO)C(=O)N(C)[C@@H](CCCNC(=N)N)C(=O)N[C@@H](CCC(=O)O)C(=O)N[C@@H](CC(=O)O)C(N)=O)C(C)C)[C@@H](C)O)C(C)C
B9: P(N-Me-W)… (peptide)
peptide: Ac-P[NMeW]AIVWGPTVSRED-NH2
SMILES: CC[C@H](C)[C@H](NC(=O)[C@H](C)NC(=O)[C@H](Cc1c[nH]c2ccccc12)N(C)C(=O)[C@@H]1CCCN1C(C)=O)C(=O)N[C@H](C(=O)N[C@@H](Cc1c[nH]c2ccccc12)C(=O)NCC(=O)N1CCC[C@H]1C(=O)N[C@H](C(=O)N[C@H](C(=O)N[C@@H](CO)C(=O)N[C@@H](CCCNC(=N)N)C(=O)N[C@@H](CCC(=O)O)C(=O)N[C@@H](CC(=O)O)C(N)=O)C(C)C)[C@@H](C)O)C(C)C
B10: PWAIV(N-Me-W)GPTVSRED (peptide)
peptide: Ac-PWAIV[NMeW]GPTVSRED-NH2
SMILES: CC[C@H](C)[C@H](NC(=O)[C@H](C)NC(=O)[C@H](Cc1c[nH]c2ccccc12)NC(=O)[C@@H]1CCCN1C(C)=O)C(=O)N[C@H](C(=O)N(C)[C@@H](Cc1c[nH]c2ccccc12)C(=O)NCC(=O)N1CCC[C@H]1C(=O)N[C@H](C(=O)N[C@H](C(=O)N[C@@H](CO)C(=O)N[C@@H](CCCNC(=N)N)C(=O)N[C@@H](CCC(=O)O)C(=O)N[C@@H](CC(=O)O)C(N)=O)C(C)C)[C@@H](C)O)C(C)C
B11: p… (peptide)
peptide: Ac-[dP]WAIVWGPTVSRED-NH2
SMILES: CC[C@H](C)[C@H](NC(=O)[C@H](C)NC(=O)[C@H](Cc1c[nH]c2ccccc12)NC(=O)[C@H]1CCCN1C(C)=O)C(=O)N[C@H](C(=O)N[C@@H](Cc1c[nH]c2ccccc12)C(=O)NCC(=O)N1CCC[C@H]1C(=O)N[C@H](C(=O)N[C@H](C(=O)N[C@@H](CO)C(=O)N[C@@H](CCCNC(=N)N)C(=O)N[C@@H](CCC(=O)O)C(=O)N[C@@H](CC(=O)O)C(N)=O)C(C)C)[C@@H](C)O)C(C)C
B12: PWAIVW(N-Me-G)PTVSRED (peptide)
peptide: Ac-PWAIVW[Sar]PTVSRED-NH2
SMILES: CC[C@H](C)[C@H](NC(=O)[C@H](C)NC(=O)[C@H](Cc1c[nH]c2ccccc12)NC(=O)[C@@H]1CCCN1C(C)=O)C(=O)N[C@H](C(=O)N[C@@H](Cc1c[nH]c2ccccc12)C(=O)N(C)CC(=O)N1CCC[C@H]1C(=O)N[C@H](C(=O)N[C@H](C(=O)N[C@@H](CO)C(=O)N[C@@H](CCCNC(=N)N)C(=O)N[C@@H](CCC(=O)O)C(=O)N[C@@H](CC(=O)O)C(N)=O)C(C)C)[C@@H](C)O)C(C)C
B13: …(N-Me-V)SRED (peptide)
peptide: Ac-PWAIVWGPT[NMeV]SRED-NH2
SMILES: CC[C@H](C)[C@H](NC(=O)[C@H](C)NC(=O)[C@H](Cc1c[nH]c2ccccc12)NC(=O)[C@@H]1CCCN1C(C)=O)C(=O)N[C@H](C(=O)N[C@@H](Cc1c[nH]c2ccccc12)C(=O)NCC(=O)N1CCC[C@H]1C(=O)N[C@H](C(=O)N(C)[C@H](C(=O)N[C@@H](CO)C(=O)N[C@@H](CCCNC(=N)N)C(=O)N[C@@H](CCC(=O)O)C(=O)N[C@@H](CC(=O)O)C(N)=O)C(C)C)[C@@H](C)O)C(C)C

In general, Ki refers to a measure of affinity in units of concentration, obtained from inhibition or displacement.

Non-standard residues stand in square brackets, D forms with d. NMeW = CN[C@@H](Cc1c[nH]c2ccccc12)C(=O)O; NMeR = CN[C@@H](CCCNC(=N)N)C(=O)O; NMeI = CC[C@H](C)[C@H](NC)C(=O)O; NMeT = CN[C@H](C(=O)O)[C@@H](C)O; NMeE = CN[C@@H](CCC(=O)O)C(=O)O; NMeD = CN[C@@H](CC(=O)O)C(=O)O; NMeV = CN[C@H](C(=O)O)C(C)C; NMeS = CN[C@@H](CO)C(=O)O; NMeA = CN[C@@H](C)C(=O)O; Sar = CNCC(=O)O

The assay deals with Sushi domains (SD1/2) protein of the GABAB1a (GB1a) subunit, recombinant. Description: FP competition.
Chain of Sushi domains (SD1/2) protein of the GABAB1a (GB1a) subunit, recombinant (Q9Z0U4 29-158): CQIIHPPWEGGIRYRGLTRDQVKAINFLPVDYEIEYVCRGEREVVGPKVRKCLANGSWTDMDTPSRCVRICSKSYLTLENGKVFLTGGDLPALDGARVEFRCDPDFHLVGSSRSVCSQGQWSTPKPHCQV
Take B1: the Ki stood at 523 nM.
In the case of Ac-PWAIVWG[dP]TVSRED-NH2 [PWAIVWGpTVSRED] it was 6860 nM; in that of Ac-PWAIVWGPTVARED-NH2, 480 nM.
For the molecule B2, the Ki was determined as 1260 nM.
In the case of Ac-PWAIVWGPTVSREA-NH2 it was 572 nM; in that of B3, 7000 nM.
Next, Ac-PWAIVWGPT[dV]SRED-NH2 […vSRED]: 686 nM; B4: 434 nM; B5: 370 nM.
Next, Ac-KDDSDVWWGGADTD-NH2: 1520 nM; Ac-PWAIVWGPTVS[dR]ED-NH2 […rED]: 605 nM; Ac-PWAIVWGPTVSAED-NH2: 341 nM.
Take Ac-PWAIVWGP[dT]VSRED-NH2 [PWAIVWGPtVSRED]: the Ki amounted to 1300 nM.
As to B6, the Ki was 7230 nM.
As for B7, the inhibitory constant (Ki) turned out to be 1040 nM.
As for B8, the Ki worked out at 502 nM.
Turning to B9, the Ki stood at 833 nM.
As to Ac-PW[dA]IVWGPTVSRED-NH2 [PWa…], the Ki amounted to 14100 nM.
With Ac-EDDWDVWWGGADTD-NH2, the Ki was determined as 257 nM.
Next, Ac-PWAIVW[dA]PTVSRED-NH2 [PWAIVWaPTVSRED]: 18100 nM.
Next, B10: 636 nM; B11: 555 nM.
Next, Ac-PWAIVWGPTVSRAD-NH2: 600 nM; Ac-P[dW]AIVWGPTVSRED-NH2 [Pw…]: 1230 nM.
As for Ac-PWAIVWGPTV[dS]RED-NH2 […sRED], the Ki stood at 552 nM.
Take B12: the Ki was found to be 58300 nM.
Take B13: the Ki was 1780 nM.
